This is an account of results in PMC7857493.

Broadly, the stoichiometry N is a count of units in the complex or per binding partner.

For assay [1], the target named is T1, Human neutrophil-derived myeloperoxidase (nMPO) (human), P05164. Kind of assay: native MS; whole unfractionated intact nMPO infused by nano-ESI (gold-coated capillaries) into a modified Q-Exactive, positive ion polarity.
In assay [2] the target is T1, Human neutrophil-derived …. Kind of assay: mass photometry; single-molecule mass photometry of intact nMPO on coverslips with silicone gaskets; apparent; diprotomer (ααββ) to monoprotomers (αβ).

B1: Human neutrophil-derived myeloperoxidase (nMPO), P05164 279-745; P05164 279-745 (enzyme)
chain 1: not shown
chain 2: VNCETSCVQQPPCFPLKIPPNDPRIKNQADCIPFFRSCPACPGSNITIRNQINALTSFVDASMVYGSEEPLARNLRNMSNQLGLLAVNQRFQDNGRALLPFDNLHDDPCLLTNRSARIPCFLAGDTRSSEMPELTSMHTLLLREHNRLATELKSLNPRWDGERLYQEARKIVGAMVQIITYRDYLPLVLGPTAMRKYLPTYRSYNDSVDPRIANVFTNAFRYGHTLIQPFMFRLDNRYQPMEPNPRVPLSRVFFASWRVVLEGGIDPILRGLMATPAKLNRQNQIAVDEIRERLFEQVMRIGLDLPALNMQRSRDHGLPGYNAWRRFCGLPQPETVGQLGTVLRNLKLARKLMEQYGTPNNIDIWMGGVSEPLKRKGRVGPLLACIIGTQFRKLRDGDRFWWENEGVFSMQQRQALAQISLPRIICDNTGITTVSKNNIFMSNSYPRDFVNCSTLPALNLASWREAS
modifications: heme covalently links the α- and β-chains; Met251 and Met253 oxidation and Trp255 oxidation variants; polypeptide truncation variants | N-glycans at Asn323 and Asn483 (mainly paucimannosidic M2F-M3F), Asn355 and Asn391 (mainly oligomannosidic M5-M6), Asn729 (largely unoccupied or GlcNAc1-GlcNAc1F); Met and Trp mono-/di-oxidation, Tyr mono-chlorination; Cys319-Cys319 bridge between the two …
Regarding B1, in assay [1], the stoichiometry N worked out at 2. In addition, in assay [2], the Kd is 0.05 nM, the percent diprotomer stood at 93%, the percent monoprotomer was 7% and the stoichiometry N worked out at 2.
